From article PMC5449596

Legend:
[1] = target: T1, HIV-1 reverse transcriptase, subtype B (HIV-1 subtype B strain HXB2, UniProt P04585;P04585 588-1147;588-1027); assay: filter binding
[2] = target: T1, HIV-1 reverse transcriptase, subtype B; assay: filter binding; remark: listed apart in the source

B1: Arbitrary control RNA (ssRNA)
RNA: GGGAAAAGCGAAUCAUACACAAGAAAUUUGGACUUUCCGCCCUUCUUGGCCUUUAUGAGGAUCUCUCUGAUUUUUCUUGCGUCGAGUUUUCCGGGGGCAUAAGGUAUUUAAUUCCAUA
B1: no binding [1].

B2: 88.1 (6/5AL) aptamer (structured_RNA)
RNA: GGGAAAAGCGAAUCAUACACAAGACAUUGACCAAAAGGGUCGAUAGCGUCGUGUAGAUUGCACCCAUGACUGAGCUACUGCCAAAUCCACCCACGGGCAUAAGGUAUUUAAUUCCAUA
B2 was tested, and the Kd [2] was 0.081 µM.
